Data from the supplement of paper PMC10567573.

B1: ETS2 (parent)
chain: TSGKRYVYRFVCDLQNLLGFTPEE
B2: TRIM14 (parent)
chain: YARTPTLDPDTMHARLRLSADRLT

Variants of: B1
Assay: protein stability index of a GFP-peptide fusion (GPS, HEK-293T) (PSI 1-6); higher = more stable
Settings: c terminus: a fixed tail appended
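Note: lentivirally expressed fusions sorted by FACS into six bins by GFP to DsRed ratio, PSI derived from sequencing read proportions per bin multiplied by bin number.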

Protein stability index: each site, then its substitutions
E23: L 2.42, Q 2.63, H 3.12, Y 2.29, D 2.04, W 2.88, V 2.1, M 2.35, A 2.68, S 2.38, P 3.46, R 3.3, C 2.97, F 2.66, N 2.43, G 2.15, I 2.43, T 2.17
P22: N 1.39, M 2.35, R 3.16, S 1.8, V 1.05, Q 2.16, L 2.85, K 1.83, Y 3.16, W 1.89, I 2.24, T 2.16
E24: K 1.81, A 2.69, S 2.21, I 1.75, H 2.03, F 2.96, L 1.96, R 1.96, Y 2.38, M 1.6, C 2.32, T 2.71, P 2.52, G 2.14, V 2.51, W 2.5, Q 1.89, N 2.33

Variants of: B2
Assay: as above
Settings: c terminus: a fixed tail appended

Protein stability index of substitutions, site by site:
D10: L 2.05, I 2, N 3.23, A 1.98, Q 2.56, T 2.66, K 3.05, E 2.66, W 3.31, Y 2.34, M 2.4, V 2.78, G 2.48, F 1.64, S 3.77, H 2.29, P 2.31, C 2.22
D8: V 2.78, P 2.41, C 2.1, E 2.26, H 1.87, A 2.15, Q 2.52, F 2.5, W 2.08, N 2.58, L 2.41, R 1.98, T 2.45, M 2.22, I 2.24, K 2.95, G 2.18, Y 1.8, S 2.5
P5: S 2.16, C 2.18, D 3.57, G 2.88, W 2.37, Y 2.11, M 1.54, F 2.06, K 3.12, A 2.08, N 2, H 2.84, I 2.17, V 1.96, Q 2.56, L 2.34, E 2.62, R 1.98
L16: D 2.77, I 2.56, K 3.01, H 3.27, C 1.93, F 2.84, E 3.5
T4: R 3.13, Y 2.32, M 2.45, L 2.16, P 2.95, H 2.67, W 1.17, A 2.37, V 2.78, S 2.47, N 3.1, F 2.21, G 2.21, E 4.06, K 2.61, I 3.04, Q 2.84, D 2.6, C 1.95
T11: C 2.94, L 2.27, R 3.65, I 2.26, S 2.66, Q 2.81, E 3.46, H 2.12, F 2.04, M 2.12, V 2.36, D 3.07, P 2.79, W 2.15, K 3.29, A 2.68, N 2.45, G 2.39, Y 2.9
R15: W 1.95, S 3.53, E 3.25, D 2.8, L 2.29, P 2.83, N 2.61, Y 2.26, I 2.87, T 3.03, C 1.85, K 2.45, A 2.81, Q 2.43, H 2.73, G 3.36, F 1.93, M 2.73, V 2.04
L7: C 2.1, Q 2.81, Y 2.63, R 2.76, K 2.56, I 1.94, F 2.54, G 2.44, S 2.98, H 2.65, D 3.54, M 2.81, E 3.65, W 2.31, T 2.46, N 2.54, V 3.33, A 2.75
R3: A 2.66, G 2.78, M 2.53, H 3.12, L 3.34, I 2.57, K 2.87, S 2.86, C 3.02, E 2.18, N 3.14, V 3, W 1.92, Y 1.83, T 3.05, F 1.85, D 3.8, Q 3.81, P 1.76
P9: H 2.92, E 2.56, S 2.04, A 2.82, K 3.15, G 3.11, T 2.58, C 2.1, D 2.98, Q 2.56, L 2.1, I 2.3, W 2.17, N 3.11, M 3.07, F 2.21, V 2.41, Y 2.22, R 2.96
H13: W 2.51, S 3.17, R 2.87, K 2.15, I 2.69, Q 2.84, C 2.27, P 3.06, Y 2.3, F 2.63, E 2.71, L 2.61, M 2.69, D 3.77, N 2.75, A 2.62, V 2.23, T 2.77
T6: H 2.44, N 1.96, P 2.3, Y 1.94, I 2.1, K 2.33, L 2.56, D 3.4, R 1.94, V 2.22, A 2.64, F 2.24, W 2.79, E 2.94, C 2.34, Q 2.33, M 2.71, G 2.37, S 2.28
A2: V 1.89, M 2.69, Q 2.71, E 3.71, I 1.73, C 2.53, N 3.09, T 2.46, F 2.74, P 3.9, W 2.5, S 2.44, D 3.32, Y 2.9, H 2.46, G 3.06, K 2.98, L 2.77, R 2.85
M12: H 3.13, N 3.63, I 2.62, V 2.06, C 2.34, G 2.89, L 2.43, E 3.6, D 3.94, R 3.07, A 2.56, P 3.2, F 2.01, Q 2.68, S 3.21, Y 2.01, T 2.74, K 2.72
A14: S 3.02, P 2.45, G 3.26, M 2.36, F 1.96, Q 2.59, H 2.04, C 2.62, R 2.13, T 2.61, I 2.13, N 3.08, K 1.83, D 3.25, E 2.67, Y 1.98, L 2.81, W 2.7, V 2.53
Y1: H 4.06, C 3.2, Q 4.33, W 2.91, I 2.71, M 3.71, F 2.21, V 3.68, K 3.71, A 3.59, E 4.17, T 3.69, D 3.61, L 3.62, P 3.77, R 3.64, G 4, N 3.52
